Laboratory results as given in patent publication US20250043302A1, “MUTATED HYDROXYPHENYLPYRUVATE DIOXYGENASE POLYPEPTIDE, AND CODING GENE AND USE THEREOF” (BEIJING DABEINONG BIOTECHNOLOGY CO., LTD., priority 2021, published 2025).

System: Arabidopsis thaliana T1 plants
Experiment: Isoxaflutole tolerance of transgenic Arabidopsis thaliana T1 plants (spray, bleached leaf area grade, damage score);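 as to Scores: Weighted damage index from 0 to 100 where higher means more damage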
Format: in vivo
Conditions: for Grade 0 (classification and statistics of the grade of pesticide damage; number of plants) / Grade 1 (classification and statistics of the grade of pesticide damage; number of plants) / Grade 2 (classification and statistics of the grade of pesticide damage; number of plants) / Grade 3 (classification and statistics of the grade of pesticide damage; number of plants): 16 plants; for Classification and statistics of the grade of pesticide damage: Grade 0 / Classification and statistics of the grade of pesticide damage: Grade 1 / Classification and statistics of the grade of pesticide damage: Grade 2 / Classification and statistics of the grade of pesticide damage: Grade 3: number of plants
Procedure, shortened: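 T1 transformants selected by glufosinate; 18-day-old plants, with empty-vector and wild-type controls, sprayed with topramezone (25–200 g ai/ha), isoxaflutole (35–280 g ai/ha) or mesotrione (52.5–420 g ai/ha), water as 0×. Bleached leaf area fraction scored at 7 DAT as grades 0–3.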

[1] = isoxaflutole 140 g ai/ha (2x field concentration), Arabidopsis thaliana T1 plants
[2] = isoxaflutole 140 g ai/ha (2×), 7 DAT, Table 2
[3] = isoxaflutole 140 g ai/ha, number of plants in grade
[4] = isoxaflutole 280 g ai/ha (4x field concentration), Arabidopsis thaliana T1 plants
[5] = isoxaflutole 280 g ai/ha (4×), 7 DAT, Table 2
[6] = isoxaflutole 280 g ai/ha, number of plants in grade

B1: AsHPPD-02: nucleotide sequence encoding Avena sativa wild-type HPPD; vector DBN11727 (nucleic acid)
DNA: ATGCCACCTACTCCAGCTACAGCTACTGGTGCTGCTGCTGCTGCCGTTACTCCTGAGCACGCTGCCAGGTCATTCCCCAGGGTGGTTCGCGTGAACCCCAGATCTGATAGGTTCCCAGTTCTGAGCTTCCACCATGTTGAGCTGTGGTGCGCTGATGCTGCTTCTGCTGCTGGCAGGTTCTCTTTCGCTCTTGGTGCTCCACTCGCTGCTAGATCTGATCTGTCTACAGGAAATAGCGCTCATGCCTCACTCCTGCTTCGCTCAGGTGCTTTGGCCTTCCTCTTCACCGCTCCATATGCTCCCCCACCTCAGGAGGCTGCTACTGCTGCTGCTACAGCCTCCATTCCAAGCTTCTCAGCTGATGCCGCTAGAACCTTCGCTGCTGCTCATGGACTTGCCGTGAGGTCTGTTGGTGTTCGCGTGGCTGATGCTGCTGAGGCTTTCAGAGTTTCCGTTGCCGGCGGAGCTAGGCCAGCTTTCGCTCCTGCTGATTTGGGACATGGTTTCGGCCTGGCTGAGGTTGAGCTTTACGGTGACGTGGTTCTCCGCTTCGTGTCTTACCCAGATGAGACTGACCTGCCTTTCCTTCCCGGCTTCGAGAGAGTTTCCTCTCCTGGTGCCGTGGATTACGGCCTGACAAGGTTCGACCACGTGGTTGGAAACGTTCCCGAGATGGCTCCAGTGATCGATTACATGAAGGGCTTCCTTGGATTCCATGAGTTCGCCGAGTTCACTGCTGAGGACGTGGGAACCACTGAGTCCGGTTTGAACTCTGTGGTTCTCGCCAACAATTCTGAGGCTGTTTTGCTCCCTCTGAATGAGCCTGTGCATGGAACCAAGAGGAGAAGCCAGATTCAAACTTACCTGGAGTACCACGGTGGCCCTGGAGTTCAGCATATCGCCCTTGCTTCTAATGATGTGTTGCGCACACTCAGAGAGATGCGCGCCAGAACCCCCATGGGAGGTTTCGAGTTCATGGCCCCACCACAGGCTAAGTACTACGAGGGCGTTAGAAGGATTGCTGGAGACGTGTTGAGCGAGGAGCAGATCAAGGAGTGCCAAGAGCTGGGTGTTCTTGTGGATAGGGATGACCAGGGCGTTCTGCTTCAAATTTTCACTAAGCCAGTGGGCGACCGCCCTACATTCTTCCTTGAGATGATTCAAAGAATCGGCTGCATGGAGAAGGATGAGGTTGGACAGGAGTACCAAAAGGGCGGATGCGGTGGCTTCGGAAAGGGTAACTTCAGCGAGTTGTTCAAGTCAATCGAGGACTACGAGAAGAGCCTCGAGGTGAAGCAGTCAGTGGTTGCCCAAAAGTCCTGA
modifications: AsHPPD-02 Nucleotide Sequence
notes: vector DBN11727
- Resistance evaluation (Table 11, isoxaflutole 140 g ai/ha (2×)): Non-resistant
- Classification and statistics of the grade of pesticide damage Grade 0 (Table 11, isoxaflutole 140 g ai/ha (2×), number of plants at grade 0): 0
- Classification and statistics of the grade of pesticide damage Grade 1 (Table 11, isoxaflutole 140 g ai/ha (2×), number of plants at grade 1): 1
- Classification and statistics of the grade of pesticide damage Grade 2 (Table 11, isoxaflutole 140 g ai/ha (2×), number of plants at grade 2): 4
- Classification and statistics of the grade of pesticide damage Grade 3 (Table 11, isoxaflutole 140 g ai/ha (2×), number of plants at grade 3): 11
- Scores (Table 11, isoxaflutole 140 g ai/ha (2×), pesticide damage score): 88
- Resistance evaluation (Table 11, isoxaflutole 280 g ai/ha (4×)): Non-resistant
- Classification and statistics of the grade of pesticide damage Grade 0 (Table 11, isoxaflutole 280 g ai/ha (4×), number of plants at grade 0): 0
- Classification and statistics of the grade of pesticide damage Grade 1 (Table 11, isoxaflutole 280 g ai/ha (4×), number of plants at grade 1): 0
- Classification and statistics of the grade of pesticide damage Grade 2 (Table 11, isoxaflutole 280 g ai/ha (4×), number of plants at grade 2): 0
- Classification and statistics of the grade of pesticide damage Grade 3 (Table 11, isoxaflutole 280 g ai/ha (4×), number of plants at grade 3): 16
- Scores (Table 11, isoxaflutole 280 g ai/ha (4×), pesticide damage score): 100
- tolerance to isoxaflutole (in words) (in vivo): no tolerance
- Resistance evaluation (isoxaflutole 140 g ai/ha): Non-resistant
- Scores (isoxaflutole 140 g ai/ha): 88
- Resistance evaluation [1]: Non-resistant
- Scores [1]: 88
- Grade 0 (classification and statistics of the grade of pesticide damage; number of plants) [1]: 0
- Grade 1 (classification and statistics of the grade of pesticide damage; number of plants) [1]: 1
- Grade 2 (classification and statistics of the grade of pesticide damage; number of plants) [1]: 4
- Grade 3 (classification and statistics of the grade of pesticide damage; number of plants) [1]: 11
- Resistance evaluation [2]: non-resistant (non-resistant plants (scores 68-100))
- Classification and statistics of the grade of pesticide damage Grade 0 [3]: 0
- Classification and statistics of the grade of pesticide damage Grade 1 [3]: 1
- Classification and statistics of the grade of pesticide damage Grade 2 [3]: 4
- Classification and statistics of the grade of pesticide damage Grade 3 [3]: 11
- Resistance evaluation (isoxaflutole 280 g ai/ha): Non-resistant
- Scores (isoxaflutole 280 g ai/ha): 100
- Resistance evaluation [4]: Non-resistant
- Scores [4]: 100
- Grade 0 (classification and statistics of the grade of pesticide damage; number of plants) [4]: 0
- Grade 1 (classification and statistics of the grade of pesticide damage; number of plants) [4]: 0
- Grade 2 (classification and statistics of the grade of pesticide damage; number of plants) [4]: 0
- Grade 3 (classification and statistics of the grade of pesticide damage; number of plants) [4]: 16
- Resistance evaluation [5]: non-resistant (non-resistant plants (scores 68-100))
- Classification and statistics of the grade of pesticide damage Grade 0 [6]: 0
- Classification and statistics of the grade of pesticide damage Grade 1 [6]: 0
- Classification and statistics of the grade of pesticide damage Grade 2 [6]: 0
- Classification and statistics of the grade of pesticide damage Grade 3 [6]: 16
- Classification and statistics of the grade of pesticide damage: Grade 0 [2]: 0
- Classification and statistics of the grade of pesticide damage: Grade 1 [2]: 1
- Classification and statistics of the grade of pesticide damage: Grade 2 [2]: 4
- Classification and statistics of the grade of pesticide damage: Grade 3 [2]: 11
- Classification and statistics of the grade of pesticide damage: Grade 0 [5]: 0
- Classification and statistics of the grade of pesticide damage: Grade 1 [5]: 0
- Classification and statistics of the grade of pesticide damage: Grade 2 [5]: 0
- Classification and statistics of the grade of pesticide damage: Grade 3 [5]: 16
- Scores (pesticide damage score 0-100, isoxaflutole 140 g ai/ha (2×), 7 DAT, Table 2): 88
- Scores (pesticide damage score 0-100, isoxaflutole 280 g ai/ha (4×), 7 DAT, Table 2): 100
